{"source": "paper PMC8155123", "about": "“A novel fungal metal-dependent α-L-arabinofuranosidase of family 54 glycoside hydrolase shows expanded substrate specificity” (Scientific Reports, 2021)", "proteins": {"B1": {"name": "ThABF (Trichoderma harzianum) (protein)", "chain": "GPCDIYSSGGTPCVAAHSTTRALYSAYTGPLYQVKRGSDGATTTISPLSSGVANAAAQDSFCAGTTCLITIIYDQSGRGNHLTQAPPGGFNGPESNGYDNLASAIGAPVTLNGQKAYGVFISPGTGYRNNAASGTAKGDAAEGMYAVLDGTHYNGACCFDYGNAETSSRDTGNGHMEAIYYGDSTVWGTGSGNGPWIMADLENGLFSGSAVHNNAGDPSISYRFVTAAVKGQPNQWAIRGGNSASGSLSTFYNGARPSASGYNPMSKEGAIILGIGGDNSNGAQGTFYEGVMTSGYPSDATENSVQANIVAAKYAVTSLTSGPALTTGSSVSLRATTACCTTRYITHSGSTVNTQVVSSSSATAPKQQASWTVRAGLGNSGCFSFESKDTPGSYIRHNNFVLLLNANDGSKQFAEDATFCPQAGLNGQGSSLRAWGYPTRYFRHYDNVLYVASNGGVHTFDATGSFNDDVSFVISASFA"}}, "experiment_in_all_cases": "purified protein", "conditions_in_all_cases": "pH 6.5, 55 °C, 10 min, sodium phosphate, metal-dependent enzyme", "key": {"purified protein [1]": {"substrate": "O=[N+]([O-])c1ccc(O[C@@H]2O[C@H](CO)[C@H](O)[C@H](O)[C@H]2O)cc1"}, "purified protein [2]": {"substrate": "O=[N+]([O-])c1ccc(O[C@H]2OC[C@@H](O)[C@@H](O)[C@@H]2O)cc1"}, "purified protein [3]": {"substrate": "C[C@H]1O[C@@H](Oc2ccc([N+](=O)[O-])cc2)[C@H](O)[C@@H](O)[C@H]1O"}, "purified protein [4]": {"substrate": "O=[N+]([O-])c1ccc(O[C@H]2O[C@H](CO)[C@@H](O)[C@@H]2O)cc1"}}, "data": [{"protein": "B1", "values": [{"measurement": "Km", "setting": "purified protein [1]", "value": "1.68 ± 0.12", "unit": "mM"}, {"measurement": "kcat", "setting": "purified protein [1]", "value": 35.5, "unit": "s⁻¹"}, {"measurement": "kcat/Km", "setting": "purified protein [1]", "value": 21100, "unit": "M⁻¹ s⁻¹"}, {"measurement": "Km", "setting": "purified protein [2]", "value": "3.30 ± 0.16", "unit": "mM"}, {"measurement": "kcat", "setting": "purified protein [2]", "value": 13.4, "unit": "s⁻¹"}, {"measurement": "kcat/Km", "setting": "purified protein [2]", "value": 4070, "unit": "M⁻¹ s⁻¹"}, {"measurement": "Km", "setting": "purified protein [3]", "value": "6.51 ± 1.00", "unit": "mM"}, {"measurement": "kcat", "setting": "purified protein [3]", "value": 35.7, "unit": "s⁻¹"}, {"measurement": "kcat/Km", "setting": "purified protein [3]", "value": 5480, "unit": "M⁻¹ s⁻¹"}, {"measurement": "Km", "setting": "purified protein [4]", "value": "6.75 ± 3.24", "unit": "mM"}, {"measurement": "kcat", "setting": "purified protein [4]", "value": 1.61, "unit": "s⁻¹"}, {"measurement": "kcat/Km", "setting": "purified protein [4]", "value": 238, "unit": "M⁻¹ s⁻¹"}]}]}
